Legend:
[1] = molecular target: human growth hormone receptor on IM-9 cells (human) (UniProt P10912); test: cell-based or functional assay
[2] = molecular target: T1, rat GHR (L43R) on BAF3 cells (clone 2E2-2B12-F4) (rat) (UniProt P16310); test: cell-based or functional assay
T1 sequence (looked up): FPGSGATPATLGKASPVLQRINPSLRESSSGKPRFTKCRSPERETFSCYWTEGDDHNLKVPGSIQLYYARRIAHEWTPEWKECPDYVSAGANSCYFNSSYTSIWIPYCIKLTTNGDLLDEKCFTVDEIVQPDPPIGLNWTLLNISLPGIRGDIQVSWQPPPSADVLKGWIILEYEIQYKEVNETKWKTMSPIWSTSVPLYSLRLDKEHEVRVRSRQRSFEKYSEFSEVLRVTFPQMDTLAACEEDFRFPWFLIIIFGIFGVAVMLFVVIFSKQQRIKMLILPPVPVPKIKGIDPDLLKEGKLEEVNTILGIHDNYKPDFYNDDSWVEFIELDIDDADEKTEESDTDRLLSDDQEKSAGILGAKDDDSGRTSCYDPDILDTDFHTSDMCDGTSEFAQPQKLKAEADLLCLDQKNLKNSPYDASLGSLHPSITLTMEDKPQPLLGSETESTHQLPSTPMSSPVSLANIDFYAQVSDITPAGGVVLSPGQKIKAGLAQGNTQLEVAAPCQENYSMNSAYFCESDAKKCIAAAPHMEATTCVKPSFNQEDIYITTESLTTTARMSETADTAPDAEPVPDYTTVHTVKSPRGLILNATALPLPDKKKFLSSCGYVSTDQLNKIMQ

UniProt P10912, sequence (P10912 19-638): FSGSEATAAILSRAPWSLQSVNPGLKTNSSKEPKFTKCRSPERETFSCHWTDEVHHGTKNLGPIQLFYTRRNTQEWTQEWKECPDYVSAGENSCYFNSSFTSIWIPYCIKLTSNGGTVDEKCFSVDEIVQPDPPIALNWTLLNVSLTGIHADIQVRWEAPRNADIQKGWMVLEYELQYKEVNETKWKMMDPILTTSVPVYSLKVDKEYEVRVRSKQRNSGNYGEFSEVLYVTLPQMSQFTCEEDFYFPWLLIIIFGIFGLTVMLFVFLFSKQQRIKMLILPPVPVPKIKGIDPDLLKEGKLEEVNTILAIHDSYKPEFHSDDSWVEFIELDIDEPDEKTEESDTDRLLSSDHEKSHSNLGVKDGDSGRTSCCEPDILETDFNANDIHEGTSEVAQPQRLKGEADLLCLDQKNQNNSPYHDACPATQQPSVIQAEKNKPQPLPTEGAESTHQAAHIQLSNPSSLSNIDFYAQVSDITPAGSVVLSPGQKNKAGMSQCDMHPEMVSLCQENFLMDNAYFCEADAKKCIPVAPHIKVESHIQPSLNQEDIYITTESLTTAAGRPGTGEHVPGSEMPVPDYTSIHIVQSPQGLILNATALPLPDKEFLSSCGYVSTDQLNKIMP

pSTAT5 EC50 (IM-9) (nM (head); WHO hGH expressed as unity) [1] | Proliferation EC50 (BrdU, rat GHR (L43R) BAF3 cells) (nM (head); WHO hGH expressed as unity) [2] | Substance
12.3 | 6.6 | hGH Y143pAF-30KPEG (from UniProt P01241 27-217) (ligand)
5.3 |  | hGH R134pAF-20KPEG (from UniProt P01241 27-217) (ligand)
23.8 | 4.6 | hGH G131pAF-30KPEG (from UniProt P01241 27-217) (ligand)
20.6 | 5.3 | hGH K145pAF-30KPEG (from UniProt P01241 27-217) (ligand)
53.3 | 24 | hGH Y35pAF-40KPEG (from UniProt P01241 27-217) (ligand)

Reference: US8778880
